Results taken from US20190367631A1 (Regeneron, published 2019).

Experiments:
[1] = target: T1, human MSR1 extracellular domain expressed with a N-terminal nonahistidine tag (human, UniProt P21757 77-451); experiment: competition ELISA, plate-coated His9-hMSR1; 100 nM antibody, competitor ligand Ac-LDL
T1 construct: extracellular domain; also called His9-hMSR1; His-hMSR1
T1 sequence: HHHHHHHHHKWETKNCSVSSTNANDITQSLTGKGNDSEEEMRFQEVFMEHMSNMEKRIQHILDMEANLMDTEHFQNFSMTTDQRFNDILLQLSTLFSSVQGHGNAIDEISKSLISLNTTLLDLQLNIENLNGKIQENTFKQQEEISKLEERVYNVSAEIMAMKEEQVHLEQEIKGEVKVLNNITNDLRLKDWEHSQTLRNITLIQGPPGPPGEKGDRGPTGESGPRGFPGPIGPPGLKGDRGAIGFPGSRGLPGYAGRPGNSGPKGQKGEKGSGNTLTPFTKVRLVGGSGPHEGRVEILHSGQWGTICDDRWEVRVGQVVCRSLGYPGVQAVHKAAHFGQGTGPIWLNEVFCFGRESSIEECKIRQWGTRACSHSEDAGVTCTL
Protocol: (§1) Buffer alone was also added to wells on each coat. […] This assay was conducted in four different assay runs.
(§2) Data analysis was performed using a sigmoidal dose-response model within Prism™ software (GraphPad).

[2] = target: T1, human MSR1 extracellular domain …; experiment: competition ELISA, plate-coated His9-hMSR1; 500 nM antibody, competitor ligand 5 nM Ox-LDL
Protocol: as §1, §2

[3] = target: T1, human MSR1 extracellular domain …; experiment: competition ELISA, plate-coated His9-hMSR1; 300 nM antibody, competitor ligand biot-AGE-BSA
Protocol: as §1, §2

[4] = target: T2, human MSR1 extracellular domain expressed with a N-terminal nonahistidine tag (His9-hMSR1); R&D Systems, Cat … (human, UniProt P21757 77-451); experiment: BLI Octet, 25 C, antibody captured
T2 construct: extracellular domain; also called His-hMSR1; 9xHis-hMSR1; not shown: N-terminal nonahistidine tag
T2 sequence (looked up): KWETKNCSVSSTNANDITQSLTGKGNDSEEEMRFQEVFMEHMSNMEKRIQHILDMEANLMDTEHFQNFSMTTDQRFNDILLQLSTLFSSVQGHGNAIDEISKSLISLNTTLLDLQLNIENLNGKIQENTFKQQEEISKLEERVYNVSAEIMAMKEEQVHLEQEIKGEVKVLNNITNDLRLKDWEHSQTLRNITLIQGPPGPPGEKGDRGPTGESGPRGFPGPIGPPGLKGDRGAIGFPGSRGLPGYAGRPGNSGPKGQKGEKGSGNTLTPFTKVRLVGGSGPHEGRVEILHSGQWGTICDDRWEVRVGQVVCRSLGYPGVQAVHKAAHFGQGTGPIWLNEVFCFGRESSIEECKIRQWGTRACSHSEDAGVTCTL

[5] = target: T3, monkey MSR1 extracellular domain expressed with a N-terminal hexahistidine-myc-myc tag (HMM-mfMSR1) (monkey (Macaca fascicularis)); experiment: BLI Octet, 25 C, antibody captured
T3 chain: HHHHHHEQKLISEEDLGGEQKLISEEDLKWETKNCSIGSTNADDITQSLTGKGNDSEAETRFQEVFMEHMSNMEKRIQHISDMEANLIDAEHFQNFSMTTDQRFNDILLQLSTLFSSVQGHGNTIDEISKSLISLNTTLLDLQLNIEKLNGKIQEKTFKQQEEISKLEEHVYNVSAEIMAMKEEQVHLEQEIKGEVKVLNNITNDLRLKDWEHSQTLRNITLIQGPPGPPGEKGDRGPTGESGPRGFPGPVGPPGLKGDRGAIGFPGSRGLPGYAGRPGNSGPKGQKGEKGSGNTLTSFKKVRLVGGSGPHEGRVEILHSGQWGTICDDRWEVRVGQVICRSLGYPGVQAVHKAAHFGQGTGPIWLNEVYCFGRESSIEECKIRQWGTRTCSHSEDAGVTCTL
Protocol: (§3) Binding affinities and kinetic constants of human anti-MSR1 antibodies for different MSR1 reagents were determined using a real time, label-free bio-layer interferometry assay on an OCTET® HTX biosensor platform (Pall FortéBio Corp., Menlo Park, Calif.). The experiment was performed at 25° C. in 10 mM HEPES, 150 mM NaCl, 3 mM EDTA, 0.05% v/v Surfactant Tween-20, and 1 mg/mL BSA, pH7.4 (HBS-EBT) buffer with the plate shaking at the speed of 1000 rpm. […] The anti-MSR1 monoclonal antibodies were captured by dipping either anti-human Fc (AHC) or anti-mouse Fc (AMC) Octet biosensors in wells containing 5 pg/mL or 10 pg/mL of anti-MSR1 monoclonal antibody for 45-90 seconds. […] The binding of different MSR1 reagents to the captured anti-MSR1 monoclonal antibody was measured for 4 minutes and the dissociation of monoclonal antibody bound MSR1 reagent was monitored for 8-10 minutes in HBS-EBT buffer.
(§4) The association rate (kₐ) and dissociation rate (kd) were determined by fitting the real-time binding sensorgrams to a 1:1 binding model with mass transport limitation using Scrubber 2.0c curve-fitting software. Binding dissociation equilibrium constant (KD) and dissociative half-life (t½) were calculated from the kinetic rates as:

[6] = target: T4, mouse MSR1 extracellular domain expressed with a N-terminal nonahistidine tag (His9-mMSR1); R&D Systems, Cat … (mouse, UniProt P30204 79-458); experiment: BLI Octet, 25 C, antibody captured
T4 construct: extracellular domain; not shown: N-terminal nonahistidine tag
T4 sequence (looked up): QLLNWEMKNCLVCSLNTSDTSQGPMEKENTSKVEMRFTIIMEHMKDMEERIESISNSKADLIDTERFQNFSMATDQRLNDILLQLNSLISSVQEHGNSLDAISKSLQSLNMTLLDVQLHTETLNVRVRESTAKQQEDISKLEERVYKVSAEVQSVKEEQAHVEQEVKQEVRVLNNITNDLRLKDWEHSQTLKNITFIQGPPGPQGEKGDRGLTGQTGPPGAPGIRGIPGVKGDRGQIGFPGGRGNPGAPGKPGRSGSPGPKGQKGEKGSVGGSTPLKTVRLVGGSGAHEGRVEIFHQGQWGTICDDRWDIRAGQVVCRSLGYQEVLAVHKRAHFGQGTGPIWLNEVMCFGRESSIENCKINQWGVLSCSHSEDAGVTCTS

[7] = target: T1, human MSR1 extracellular domain …; experiment: competition ELISA, plate-coated His9-hMSR1; 500 nM antibody, competitor ligand 10 nM Ox-LDL
Protocol: as §1, §2

[8] = target: T4, mouse MSR1 extracellular domain …; experiment: BLI Octet, 25 C, antibody captured; kd fixed, no dissociation seen
Protocol: as §3, §4

[9] = target: T2, human MSR1 extracellular domain …; experiment: SPR Biacore, 25 C, antibody captured; kd fixed, no dissociation seen
Protocol: (§5) Binding affinities and kinetic constants of human anti-MSR1 antibodies for different MSR1 reagents were determined by real-time surface plasmon resonance (Biacore 4000). All binding studies were performed in 10 mM HEPES, 150 mM NaCl, 3 mM EDTA, and 0.05% v/v Surfactant Tween-20, pH 7.4 (HBS-ET) running buffer at 25° C. and 37° C.
as §4

[10] = target: T3, monkey MSR1 extracellular domain …; experiment: as above
Protocol: as §5, §4

[11] = target: T2, human MSR1 extracellular domain …; experiment: SPR Biacore, 37 C, antibody captured; kd fixed, no dissociation seen
Protocol: as §5, §4

[12] = target: T3, monkey MSR1 extracellular domain …; experiment: as above
Protocol: as §5, §4

[13] = target: T3, monkey MSR1 extracellular domain …; experiment: SPR Biacore, 25 C, antibody captured;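 also: rates from 1:1 fit with mass transport limitation of real-time sensorgrams, HEPES-buffered saline with EDTA and Tween-20 at pH 7.4, KD and t½ derived from the kinetic rates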

B1: H2aM21228N (antibody, mouse IgG2a, V domains shown)
VH: VQLVESGGGLVQPGGSLRLSCAASGFTFSDHYMDWVRQAPGKGLEWVGRTRNKANSHTTEYAASVSGRFTISRDDSKNSLYLQMNSLKTEDTAVYYCTRAGIIGTLFDYWGQGTLVTVSS
VL: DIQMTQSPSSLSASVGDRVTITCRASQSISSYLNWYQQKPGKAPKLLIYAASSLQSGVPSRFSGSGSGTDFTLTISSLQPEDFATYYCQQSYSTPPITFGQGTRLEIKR
notes: Human variable domains with mouse IgG2a Fc
% Blocking [1]: -32%
% Blocking [2]: 41%
% Blocking [3]: -1%

B2: H2aM21235N (antibody, V domains shown)
VH: EVQLVESGGGLVQPGGSLRLSCAASGFTFSDHYMDWVRQAPGKGLEWVGRTRNKANSYTTEYAASVSGRFTISRDDSKNSLYLQMNSLKTEDTAVYYCTRAGIIGTLFDYWGQGTLVTVSS
VL: DIQMTQSPSSLSASVGDRVTITCRASQIIGRYLNWFQQKPGKVPKLLIYAASSLQRGVPSRFSGSGSGTDFTLTISSLQPEDFATYYCQQSYNTPPITFGQGTRLEIKR
notes: Human variable domains with mouse IgG2a Fc; tied by the numerical identifier
Kd [4]: 378 pM
t½ [4]: 4.2 h
Kd [5]: 612 pM
t½ [5]: 3.07 h
binding result [6]: no binding (tested: 100 nM)

B3: H2aM21229N (antibody, mouse IgG2a, V domains shown)
VH: EVQLVESGGGLVKPGGSLRLSCAASGFTFSRYSMNWVRQAPGKGLEWVSSISSSSSYIYYGDTVKGRFTISRDNAKKSLYLQMNSLRAEDTAVYYCVRDRGQLVLYFDYWGQGTLVTVSS
VL: DIQMTQSPASLSTSIRDRVTITCRASLSISSFLNWFQQRPGKAPKLLIYVASNLQSGVPSRFSDSGSGTDFTLTISSLQPEDFATYYCQQNYSTPPITFGQGTRLEIK
notes: as for B1
% Blocking [1]: -11%
% Blocking [2]: 38%
% Blocking [3]: 3%

B4: H2aM21229N (antibody, V domains shown)
VH: EVQLVESGGGLVKPGGSLRLSCAASGFTFSRYSMNWVRQAPGKGLEWVSSISSSSSYIYYGDTVKGRFTISRDNAKKSLYLQMNSLRAEDTAVYYCVRDRGQLVLYFDYWGQGTLVTVSS
VL: DIQMTQSPASLSTSIRDRVTITCRASLSISSFLNWFQQRPGKAPKLLIYVASNLQSGVPSRFSDSGSGTDFTLTISSLQPEDFATYYCQQNYSTPPITFGQGTRLEIK
notes: as for B1
Kd [4]: 700 pM
koff [4]: 0.00021 s⁻¹
kon [4]: 300000 M⁻¹ s⁻¹
t½ [4]: 0.917 h
Kd [5]: 16400 pM
koff [5]: 0.00222 s⁻¹
kon [5]: 135000 M⁻¹ s⁻¹
t½ [5]: 0.0833 h
binding result [6]: no binding (tested: 100 nM)

B5: H1H21234N-N297Q (antibody, V domains shown)
VH: QVQLQESGPGLVKPSETLSLTCTVTGGSISRNYWSWIRQPPGKGLEWIGYIYYSGSIDYNPSLKSRVTISVDTSKNQFSLKLSSMTAADTAVYYCARDRWNWKYGMDVWGQGTTVIVSS
VL: EIVLTQSPGTLSLSPGERATLSCRASQTVRNNYLAWYHQKPGQAPRLLIYGASSRATGIPDRFSGSGSGTDFTLTISRLEPEDFTVYYCHQYGNSPWTFGQGTKMEIKR
notes: Human IgG1 Fc with N297Q (EU numbering)
% Blocking [1]: 75%
% Blocking [3]: -27%
% Blocking [7]: 49%

B6: H1H21234N (antibody, V domains shown)
VH: QVQLQESGPGLVKPSETLSLTCTVTGGSISRNYWSWIRQPPGKGLEWIGYIYYSGSIDYNPSLKSRVTISVDTSKNQFSLKLSSMTAADTAVYYCARDRWNWKYGMDVWGQGTTVIVSS
VL: EIVLTQSPGTLSLSPGERATLSCRASQTVRNNYLAWYHQKPGQAPRLLIYGASSRATGIPDRFSGSGSGTDFTLTISRLEPEDFTVYYCHQYGNSPWTFGQGTKMEIKR
notes: Original human IgG1 Fc
% Blocking [1]: 70%
% Blocking [3]: 21%
% Blocking [7]: 98%

B7: H1H21234N (antibody, V domains shown)
VH: QVQLQESGPGLVKPSETLSLTCTVTGGSISRNYWSWIRQPPGKGLEWIGYIYYSGSIDYNPSLKSRVTISVDTSKNQFSLKLSSMTAADTAVYYCARDRWNWKYGMDVWGQGTTVIVSS
VL: EIVLTQSPGTLSLSPGERATLSCRASQTVRNNYLAWYHQKPGQAPRLLIYGASSRATGIPDRFSGSGSGTDFTLTISRLEPEDFTVYYCHQYGNSPWTFGQGTKMEIKR
notes: Original human IgG1 Fc (no N297 mutation)
Kd [8]: ≤ 1090 pM
koff [8]: ≤ 5e-05 s⁻¹
kon [8]: 46000 M⁻¹ s⁻¹
t½ [8]: 3.85 h
Kd [9]: ≤ 16.6 pM
koff [9]: ≤ 1e-05 s⁻¹
kon [9]: 604000 M⁻¹ s⁻¹
t½ [9]: 19.2 h
Kd [10]: ≤ 29.8 pM
koff [10]: ≤ 1e-05 s⁻¹
kon [10]: 336000 M⁻¹ s⁻¹
t½ [10]: 19.2 h
Kd [11]: 14.8 pM
koff [11]: ≤ 1e-05 s⁻¹
kon [11]: 676000 M⁻¹ s⁻¹
t½ [11]: 19.2 h
Kd [12]: 13.8 pM
koff [12]: ≤ 1e-05 s⁻¹
kon [12]: 726000 M⁻¹ s⁻¹
t½ [12]: 19.2 h

B8: H1H21234N-N297Q (antibody, V domains shown)
VH: QVQLQESGPGLVKPSETLSLTCTVTGGSISRNYWSWIRQPPGKGLEWIGYIYYSGSIDYNPSLKSRVTISVDTSKNQFSLKLSSMTAADTAVYYCARDRWNWKYGMDVWGQGTTVIVSS
VL: EIVLTQSPGTLSLSPGERATLSCRASQTVRNNYLAWYHQKPGQAPRLLIYGASSRATGIPDRFSGSGSGTDFTLTISRLEPEDFTVYYCHQYGNSPWTFGQGTKMEIKR
notes: Human IgG1 Fc with N297Q point mutation (EU numbering)
Kd [13]: 46.6 pM
koff [13]: 1.95e-05 s⁻¹
kon [13]: 408000 M⁻¹ s⁻¹
t½ [13]: 9.88 h
Kd [8]: ≤ 1310 pM
koff [8]: ≤ 5e-05 s⁻¹
kon [8]: 38200 M⁻¹ s⁻¹
t½ [8]: 3.85 h
Kd [9]: ≤ 20.1 pM
koff [9]: ≤ 1e-05 s⁻¹
kon [9]: 497000 M⁻¹ s⁻¹
t½ [9]: 19.2 h
Kd [11]: 12.7 pM
koff [11]: ≤ 1e-05 s⁻¹
kon [11]: 787000 M⁻¹ s⁻¹
t½ [11]: 19.2 h
Kd [12]: 13.3 pM
koff [12]: ≤ 1e-05 s⁻¹
kon [12]: 750000 M⁻¹ s⁻¹
t½ [12]: 19.2 h

B9: H2aM25695N (antibody, mouse IgG2a, V domains shown)
VH: QVQLQESGPGLVKPSETLSLTCTVTGGSISRNYWSWIRQPPGKGLEWIGYIYYSGSINYNPSLKSRVTISVDMSKNQFSLKLNSVTAADTAVYYCARDRWNWKYGMDVWGQGTTVIVSS
VL: EIVLTQSPGTLSLSPGERATLSCRASQTVRNSYLAWYHQKPGQAPRLLIYGASSRATGIPDRFSGSGSGTDFTLTISRLEPEDFAVYYCQQYGSSYWTFGQGTKMEIKR
notes: as for B1
% Blocking [1]: 65%
% Blocking [3]: 16%
% Blocking [7]: 96%
